B1: BBI: soybean-derived serine protease inhibitor protein from Sigma-Aldrich, used in PBS-liposome vehicle (protein, UniProt P01055 40-110, looked up)
Bowman-Birk type proteinase …: DDESSKPCCDQCACTKSNPPQCRCSDMRLNSCHSACKSCICALSYPAQCFCVDITDFCYEPCKPSEDDKEN
B2: STI: soybean-derived serine protease inhibitor protein from Sigma-Aldrich, used in PBS-liposome vehicle (protein, UniProt P01070 25-205, looked up)
Trypsin inhibitor A: DFVLDNEGNPLENGGTYYILSDITAFGGIRAAPTGNERCPLTVVQSRNELDKGIGTIISSPYRIRFIAEGHPLSLKFDSFAVIMLCVGIPTEWSVVEDLPEGPAVKIGENKDAMDGWFRLERVSDDEFNNYKLVFCPQQAEDDKCGDIGISIDHDDGTRRLVVSKNKPLVVQFQKLDKESL

What was measured:
C57Bl/6 mice = assay: Depilation-induced hair cycle in C57Bl/6 mice, daily topical treatment; type: in vivo, mouse; settings: day eight of the hair cycle (FIG. 10), PBS-liposome vehicle
Source text: (§1) C57BI/6 or C3H mice (male and female) were obtained from Charles River (Kingston, NY), at 8-10 weeks of age and were in the resting (telogen) phase of their respective hair cycle. Hair growth was induced by wax depilation (plucking) of each respective animal's back fur according to the procedure set forth in Stenn, et al., “Glucocorticoid Effect on Hair Growth Initiation: A Reconsideration,” 6 Skin Pharmacol., 125-134 (1993). In C57Bl/6 and C3H mice, 8-10 weeks old, the growth phase (anagen) starts synchronously in all hair follicles at the time of depilation.
Since the murine hair cycle varies not only between strains, but also amongst individual animals, the status of the hair cycle was analyzed in each animal on study. A 2 cm by 1 cm skin sample was isolated from each mouse with scissors, fixed with a 10% buffered formalin solution having a pH of about 6.9-7.1 at 25° C. (Stephens Scientific), and then formed into a paraffin block according to well-known procedures. The block was then microtomed, and sections were stained with H&E or Fontana-Mason stain. Sections were examined histologically in order to verify the phase of the hair cycle, the size of the hair follicle and hair shaft and the level of hair pigmentation, using procedures well known in the art. Hair length was assessed visually, and by using a low magnification (×8) dissecting microscope. […]

C3H mice = assay: Depilation-induced hair cycle in C3H mice, daily topical treatment; type: in vivo, mouse; settings: for hair follicle histology: 1%, day seven of the hair cycle; for hair follicle histology / effect on hair growth and pigmentation: PBS-liposome vehicle; for effect on hair growth and pigmentation: high concentrations; for hair growth, follicle and shaft size, visual observation throughout the hair cycle: in PBS-liposome vehicle (FIG. 9)
Source text: as §1
Since the murine hair cycle varies not only between strains, but also amongst individual animals, the status of the hair cycle was analyzed in each animal on study. A 2 cm by 1 cm skin sample was isolated from each mouse with scissors, fixed with a 10% buffered formalin solution having a pH of about 6.9-7.1 at 25° C. (Stephens Scientific), and then formed into a paraffin block according to well-known procedures. The block was then microtomed, and sections were stained with H&E or Fontana-Mason stain. Sections were examined histologically in order to verify the phase of the hair cycle, the size of the hair follicle and hair shaft and the level of hair pigmentation, using procedures well known in the art. Hair length was assessed visually, and by using a low magnification (×8) dissecting microscope.
In order to verify that the effect of soymilk on hair growth is not specific to C57Bl/6 mice, we repeated the experiment described in Example 4 using the brown haired (Agouti) C3H mice. The results of these experiments were similar both visually and histologically.

trypsin = assay: Enzchek protease digestion fluorescent assay with trypsin; type: biochemical; settings: 100 units of trypsin; increasing concentrations / serial dilutions
Procedure: In order to support the hypothesis that STI and BBI in soymilk are involved in the hair growth effects described above, we tested soymilk for its serine protease inhibitory activity. An enzymatic assay was performed using “Enzchek”, a protease digestion fluorescent test system made by Molecular Probes of Eugene, Oreg. Using 100 units of trypsin (from Sigma chemicals, St. Louis Mo.) the test system produced fluorescence reading of about 1100 units. This reaction was inhibited with increasing concentrations of STI, as expected from a known trypsin inhibitor.

Molecule	hair follicle histology (C57Bl/6 mice)	hair follicle histology (C3H mice)	effect on hair growth and pigmentation (C3H mice)	hair growth, follicle and shaft size, visual observation throughout the hair cycle (C3H mice)	inhibition of trypsin reaction (trypsin)
B1	smaller and less pigmented follicles	reduce hair follicle and hair shaft size and hair shaft pigmentation	substantial	could delay hair growth and reduce hair follicle and hair shaft size	–
B2	smaller and less pigmented follicles	reduce hair follicle and hair shaft size and hair shaft pigmentation	substantial	could delay hair growth and reduce hair follicle and hair shaft size	inhibited

From patent US7985404B1, “Reducing hair growth, hair follicle and hair shaft size and hair pigmentation” (Johnson & Johnson Consumer Companies, Inc., priority 1999, dated 2011)
